# Data reported in US20240366663A1.
# Target: CD20 (UniProt P11836)
# Test: cell-based or functional assay
# Chain of UniProt P11836 (P11836 whole entry): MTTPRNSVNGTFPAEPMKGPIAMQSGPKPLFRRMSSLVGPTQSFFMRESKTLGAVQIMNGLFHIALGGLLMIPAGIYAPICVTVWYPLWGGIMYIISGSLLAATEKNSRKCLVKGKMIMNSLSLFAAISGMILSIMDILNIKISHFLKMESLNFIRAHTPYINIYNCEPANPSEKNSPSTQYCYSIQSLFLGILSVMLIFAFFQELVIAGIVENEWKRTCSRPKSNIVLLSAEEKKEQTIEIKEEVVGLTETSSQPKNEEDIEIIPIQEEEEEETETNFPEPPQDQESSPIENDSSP
"EC:50 of percent specific lysis of ARH-77 cells, 4 h caspase assay, AB-202 + 0.01 µg/mL Obinutuzumab","EC:50 of percent specific lysis of ARH-77 cells, 4 h caspase assay, AB-202 + 0.1 µg/mL Obinutuzumab","EC:50 of percent specific lysis of ARH-77 cells, 4 h caspase assay, AB-202 + 1 µg/mL Obinutuzumab","EC:50 of percent specific lysis of ARH-77 cells, 4 h caspase assay, CBNK + 0.01 µg/mL Obinutuzumab","EC:50 of percent specific lysis of ARH-77 cells, 4 h caspase assay, CBNK + 0.1 µg/mL Obinutuzumab","EC:50 of percent specific lysis of ARH-77 cells, 4 h caspase assay, CBNK + 1 µg/mL Obinutuzumab","EC:50 of percent specific lysis of ARH-77 cells, 4 h caspase assay, AB-202 + 0.1 µg/mL Rituximab","EC:50 of percent specific lysis of ARH-77 cells, 4 h caspase assay, AB-202 + 1 µg/mL Rituximab","EC:50 of percent specific lysis of ARH-77 cells, 4 h caspase assay, CBNK + 0.01 µg/mL Rituximab","EC:50 of percent specific lysis of ARH-77 cells, 4 h caspase assay, CBNK + 0.1 µg/mL Rituximab","EC:50 of percent specific lysis of ARH-77 cells, 4 h caspase assay, CBNK + 1 µg/mL Rituximab",Substance,fold increase of AB-202 killing activity on ARH-77 cells with 1 µg/mL Obinutuzumab versus no antibody [fold],fold increase of CBNK killing activity on ARH-77 cells with 1 µg/mL Obinutuzumab versus no antibody [fold]
1.21,1.05,0.97,2.99,0.85,0.37,,,,,,Obinutuzumab (antibody),2.9,66.5
,,,,,,1.56,1.49,11,3.25,2.39,Rituximab (antibody),,
